Results reported in IntAct's records for PubMed 31515488.

B1: Protein LDOC1 (Homo sapiens), O95751 (parent)
chain: MVDELVLLLHALLMRHRALSIENSQLMEQLRLLVCERASLLRQVRPPSCPVPFPETFNGESSRLPEFIVQTASYMLVNENRFCNDAMKVAFLISLLTGEAEEWVVPYIEMDSPILGDYRAFLDEMKQCFGWDDDEDDDDEEEEDDY
partner: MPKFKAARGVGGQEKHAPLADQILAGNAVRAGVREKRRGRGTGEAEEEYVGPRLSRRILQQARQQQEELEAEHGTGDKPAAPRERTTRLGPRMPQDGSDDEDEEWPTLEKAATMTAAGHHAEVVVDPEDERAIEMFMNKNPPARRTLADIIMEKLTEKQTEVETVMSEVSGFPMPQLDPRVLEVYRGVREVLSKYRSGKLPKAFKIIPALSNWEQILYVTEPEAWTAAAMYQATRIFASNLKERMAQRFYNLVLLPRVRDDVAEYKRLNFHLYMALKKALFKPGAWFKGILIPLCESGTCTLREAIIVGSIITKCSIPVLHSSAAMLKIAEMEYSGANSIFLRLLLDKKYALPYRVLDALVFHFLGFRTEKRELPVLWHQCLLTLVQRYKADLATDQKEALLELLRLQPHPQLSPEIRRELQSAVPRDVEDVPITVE
B2: Protein LDOC1 (Homo sapiens), O95751 (parent)
chain: B1 chain
partner: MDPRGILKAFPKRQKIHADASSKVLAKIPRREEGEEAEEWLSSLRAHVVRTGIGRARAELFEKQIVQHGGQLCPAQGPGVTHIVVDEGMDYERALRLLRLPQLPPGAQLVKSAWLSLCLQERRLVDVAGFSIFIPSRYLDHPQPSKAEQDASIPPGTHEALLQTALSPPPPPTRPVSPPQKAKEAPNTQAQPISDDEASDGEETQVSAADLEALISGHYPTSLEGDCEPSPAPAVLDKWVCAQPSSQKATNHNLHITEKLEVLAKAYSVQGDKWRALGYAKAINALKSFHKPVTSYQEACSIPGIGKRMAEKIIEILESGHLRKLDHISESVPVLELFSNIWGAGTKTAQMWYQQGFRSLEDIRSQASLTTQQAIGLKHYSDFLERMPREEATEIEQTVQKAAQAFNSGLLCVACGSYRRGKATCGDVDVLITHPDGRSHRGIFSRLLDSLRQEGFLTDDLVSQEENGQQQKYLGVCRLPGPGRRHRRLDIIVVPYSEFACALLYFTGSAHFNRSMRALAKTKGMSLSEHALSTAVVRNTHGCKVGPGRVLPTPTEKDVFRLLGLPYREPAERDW
B3: Microtubule-associated tumor suppressor candidate 2 (Homo sapiens), Q5JR59-3 (parent)
chain: MGHCCCKPYNCLQCLDKTNESALVKEKELSIELANIRDEVAFHTAKCEKLQKEKEELERRFEDEVKRLGWQQQAELQELEERLQLQFEAEMARLQEEHGDQLLSIRCQHQEQVEDLTASHDAALLEMENNHTVAITILQDDHDHKVQELMSTHELEKKELEENFEKLRLSLQDQVDTLTFQSQSLRDRARRFEEALRKNTEEQLEIALAPYQHLEEDMKSLKQVLEMKNQQIHEQEKKILELEKLAEKNIILEEKIQVLQQQNEDLKARIDQNTVVTRQLSEENANLQEYVEKETQEKKRLSRTNEELLWKLQTGDPTSPIKLSPTSPVYRGSSSGPSSPARVSTTPR
partner: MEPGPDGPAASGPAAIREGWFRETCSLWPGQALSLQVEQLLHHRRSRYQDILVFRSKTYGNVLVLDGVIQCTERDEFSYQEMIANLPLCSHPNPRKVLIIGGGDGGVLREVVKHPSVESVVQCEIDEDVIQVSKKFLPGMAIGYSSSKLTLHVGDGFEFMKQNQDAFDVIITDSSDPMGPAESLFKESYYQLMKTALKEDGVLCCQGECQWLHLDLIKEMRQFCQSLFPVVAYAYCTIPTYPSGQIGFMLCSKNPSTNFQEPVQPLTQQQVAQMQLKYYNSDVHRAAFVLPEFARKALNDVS
B4: Protein DBF4 homolog B (Homo sapiens), Q8NFT6 (parent)
chain: MSEPGKGDDCLELESSMAESRLRAPDLGVSRCLGKCQKNSPGARKHPFSGKSFYLDLPAGKNLQFLTGAIQQLGGVIEGFLSKEVSYIVSSRREVKAESSGKSHRGCPSPSPSEVRVETSAMVDPKGSHPRPSRKPVDSVPLSRGKELLQKAIRNQGSISGGGSGGSSSLLTNARSWGVRILHVDEMMMHVQQLSLASLCVKKQQPKKPEGTCPAAESRTRKVARLKAPFLKIEDESRKFRPFHHQFKSFPEISFLGPKDASPFEAPTTLGSMHHTRESKDGEPSPRSAAHTMPRRKKGYCECCQEAFEELHVHLQSAQHRSFALEAHLYAEVDRIIAQLSHSFADIPFQAGLPRWSGSPASDCDPLCPETLHPHQPSHPRAASPRIRKEDSCQASVTQGRAAGQQRWTESLDGVMGPPASHTCVSATTLLPALPKGSREQGCLCPCPASFTQSHLVTSLALLPGEWSPAEDMPLHPSQENSFAPADIPVKGPLLFPEARPWLMSARCWVRPFPFVTWGCLIPHDTTPLHEEVSPCPCLRLGYLYLLLTQSLWCRVRVPSLSTAGPIPRTSHPCTLAFPSYLNDHDLGHLCQAKPQGWNTPQPFLHCGFLAVDSG
partner: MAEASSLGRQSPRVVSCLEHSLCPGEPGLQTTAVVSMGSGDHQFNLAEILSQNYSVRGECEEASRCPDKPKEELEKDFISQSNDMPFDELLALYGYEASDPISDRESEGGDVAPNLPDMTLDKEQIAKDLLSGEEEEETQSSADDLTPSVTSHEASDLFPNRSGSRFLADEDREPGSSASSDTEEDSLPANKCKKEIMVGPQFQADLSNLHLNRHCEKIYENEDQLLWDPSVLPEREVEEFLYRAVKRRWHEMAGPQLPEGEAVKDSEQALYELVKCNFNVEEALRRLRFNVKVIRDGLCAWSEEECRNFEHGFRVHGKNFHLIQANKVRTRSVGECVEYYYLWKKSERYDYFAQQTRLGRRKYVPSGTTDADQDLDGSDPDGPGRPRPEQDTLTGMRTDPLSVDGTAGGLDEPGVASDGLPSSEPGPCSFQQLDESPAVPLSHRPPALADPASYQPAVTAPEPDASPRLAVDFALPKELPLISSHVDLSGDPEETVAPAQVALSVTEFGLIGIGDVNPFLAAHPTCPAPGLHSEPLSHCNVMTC
B5: Carboxy-terminal domain RNA polymerase II polypeptide A small phosphatase 1 (Homo sapiens), Q9GZU7 (parent)
chain: MDSSAVITQISKEEARGPLRGKGDQKSAASQKPRSRGILHSLFCCVCRDDGEALPAHSGAPLLVEENGAIPKQTPVQYLLPEAKAQDSDKICVVIDLDETLVHSSFKPVNNADFIIPVEIDGVVHQVYVLKRPHVDEFLQRMGELFECVLFTASLAKYADPVADLLDKWGAFRARLFRESCVFHRGNYVKDLSRLGRDLRRVLILDNSPASYVFHPDNAVPVASWFDNMSDTELHDLLPFFEQLSRVDDVYSVLRQPRPGS
partner: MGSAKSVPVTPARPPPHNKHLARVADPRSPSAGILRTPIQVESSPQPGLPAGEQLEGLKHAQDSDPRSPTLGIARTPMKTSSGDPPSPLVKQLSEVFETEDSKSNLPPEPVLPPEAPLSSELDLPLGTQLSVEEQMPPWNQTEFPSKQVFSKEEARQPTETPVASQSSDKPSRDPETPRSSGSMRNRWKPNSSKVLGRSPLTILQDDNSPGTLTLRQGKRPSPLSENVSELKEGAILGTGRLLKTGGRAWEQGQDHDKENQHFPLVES
B6: Probable splicing factor YJU2B (Homo sapiens), P13994 (parent)
chain: MGERKGVNKYYPPDFNPEKHGSLNRYHNSHPLRERARKLSQGILIIRFEMPYNIWCDGCKNHIGMGVRYNAEKKKVGNYYTTPIYRFRMKCHLCVNYIEMQTDPANCDYVIVSGAQRKEERWDMADNEQVLTTEHEKKQKLETDAMFRLEHGEADRSTLKKALPTLSHIQEAQSAWKDDFALNSMLRRRFREKKKAIQEEEERDQALQAKASLTIPLVPETEDDRKLAALLKFHTLDSYEDKQKLKRTEIISRSWFPSAPGSASSSKVSGVLKKLAQSRRTALATSPITVGDLGIVRRRSRDVPESPQHAADTPKSGEPRVPEEAAQDRPMSPGDCPPETTETPKCSSPRGQEGSRQDKPLSPAGSSQEAADTPDTRHPCSLGSSLVADYSDSESE
B7: Tuftelin-interacting protein 11 (Homo sapiens), Q9UBB9 (parent)
chain: MSLSHLYRDGEGRIDDDDDERENFEITDWDLQNEFNPNRQRHWQTKEEATYGVWAERDSDDERPSFGGKRARDYSAPVNFISAGLKKGAAEEAELEDSDDEEKPVKQDDFPKDFGPRKLKTGGNFKPSQKGFAGGTKSFMDFGSWERHTKGIGQKLLQKMGYVPGRGLGKNAQGIINPIEAKQRKGKGAVGAYGSERTTQSMQDFPVVDSEEEAEEEFQKELSQWRKDPSGSKKKPKYSYKTVEELKAKGRISKKLTAPQKELSQVKVIDMTGREQKVYYSYSQISHKHNVPDDGLPLQSQQLPQSGKEAKAPGFALPELEHNLQLLIDLTEQEIIQNDRQLQYERDMVVNLFHELEKMTEVLDHEERVISNLSKVLEMVEECERRMQPDCSNPLTLDECARIFETLQDKYYEEYRMSDRVDLAVAIVYPLMKEYFKEWDPLKDCTYGTEIISKWKSLLENDQLLSHGGQDLSADAFHRLIWEVWMPFVRNIVTQWQPRNCDPMVDFLDSWVHIIPVWILDNILDQLIFPKLQKEVENWNPLTDTVPIHSWIHPWLPLMQARLEPLYSPIRSKLSSALQKWHPSDSSAKLILQPWKDVFTPGSWEAFMVKNIVPKLGMCLGELVINPHQQHMDAFYWVIDWEGMISVSSLVGLLEKHFFPKWLQVLCSWLSNSPNYEEITKWYLGWKSMFSDQVLAHPSVKDKFNEALDIMNRAVSSNVGAYMQPGARENIAYLTHTERRKDFQYEAMQERREAENMAQRGIGVAASSVPMNFKDLIETKAEEHNIVFMPVIGKRHEGKQLYTFGRIVIYIDRGVVFVQGEKTWVPTSLQSLIDMAK
partner: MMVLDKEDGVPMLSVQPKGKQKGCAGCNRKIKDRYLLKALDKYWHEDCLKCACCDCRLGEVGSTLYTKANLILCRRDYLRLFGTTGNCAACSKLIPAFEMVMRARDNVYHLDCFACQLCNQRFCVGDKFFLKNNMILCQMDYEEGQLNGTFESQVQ
B8: "Peptide-N(4)-(N-acetyl-beta-glucosaminyl)asparagine amidase" (Homo sapiens), Q96IV0 (parent)
chain: MAAAALGSSSGSASPAVAELCQNTPETFLEASKLLLTYADNILRNPNDEKYRSIRIGNTAFSTRLLPVRGAVECLFEMGFEEGETHLIFPKKASVEQLQKIRDLIAIERSSRLDGSNKSHKVKSSQQPAASTQLPTTPSSNPSGLNQHTRNRQGQSSDPPSASTVAADSAILEVLQSNIQHVLVYENPALQEKALACIPVQELKRKSQEKLSRARKLDKGINISDEDFLLLELLHWFKEEFFHWVNNVLCSKCGGQTRSRDRSLLPSDDELKWGAKEVEDHYCDACQFSNRFPRYNNPEKLLETRCGRCGEWANCFTLCCRAVGFEARYVWDYTDHVWTEVYSPSQQRWLHCDACEDVCDKPLLYEIGWGKKLSYVIAFSKDEVVDVTWRYSCKHEEVIARRTKVKEALLRDTINGLNKQRQLFLSENRRKELLQRIIVELVEFISPKTPKPGELGGRISGSVAWRVARGEMGLQRKETLFIPCENEKISKQLHLCYNIVKDRYVRVSNNNQTISGWENGVWKMESIFRKVETDWHMVYLARKEGSSFAYISWKFECGSVGLKVDSISIRTSSQTFQTGTVEWKLRSDTAQVELTGDNSLHSYADFSGATEVILEAELSRGDGDVAWQHTQLFRQSLNDHEENCLEIIIKFSDL

Variants of: B1
Details: with byst_human BYSL

Variant	effect of a mutation on the interaction
L12H	disrupting interaction strength

Variants of: B2
Details: with dpoll_human POLL

Variant	effect of a mutation on the interaction
L12H	disrupting interaction strength

Variants of: B3
Details: with spee_human SRM

Variant	effect of a mutation on the interaction
A89V	with no effect

Variants of: B4
Details: with mier2_human MIER2, Q8N344

Variant	effect of a mutation on the interaction
L199S	with no effect

Variants of: B5
Details: with cdca3_human CDCA3, Q99618

Variant	effect of a mutation on the interaction
A56T	with no effect
H57D	with no effect

Variants of: B6
Details: with znf24_human ZNF24, P17028
znf24_human ZNF24, P17028, sequence (P17028 whole entry): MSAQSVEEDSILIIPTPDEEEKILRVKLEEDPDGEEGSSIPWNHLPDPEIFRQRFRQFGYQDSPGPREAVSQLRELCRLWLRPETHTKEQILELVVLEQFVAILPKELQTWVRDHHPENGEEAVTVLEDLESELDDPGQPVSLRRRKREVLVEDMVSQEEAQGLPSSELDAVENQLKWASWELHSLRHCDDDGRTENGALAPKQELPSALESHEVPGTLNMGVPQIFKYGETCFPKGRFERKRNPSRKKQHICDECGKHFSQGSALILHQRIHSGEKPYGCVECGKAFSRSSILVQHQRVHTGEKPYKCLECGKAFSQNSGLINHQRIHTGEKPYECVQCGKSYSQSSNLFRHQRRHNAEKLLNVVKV

Variant	effect of a mutation on the interaction
S22C	with no effect

Variants of: B6
Details: with traf2_human TRAF2, Q12933
traf2_human TRAF2, Q12933, sequence (Q12933 whole entry): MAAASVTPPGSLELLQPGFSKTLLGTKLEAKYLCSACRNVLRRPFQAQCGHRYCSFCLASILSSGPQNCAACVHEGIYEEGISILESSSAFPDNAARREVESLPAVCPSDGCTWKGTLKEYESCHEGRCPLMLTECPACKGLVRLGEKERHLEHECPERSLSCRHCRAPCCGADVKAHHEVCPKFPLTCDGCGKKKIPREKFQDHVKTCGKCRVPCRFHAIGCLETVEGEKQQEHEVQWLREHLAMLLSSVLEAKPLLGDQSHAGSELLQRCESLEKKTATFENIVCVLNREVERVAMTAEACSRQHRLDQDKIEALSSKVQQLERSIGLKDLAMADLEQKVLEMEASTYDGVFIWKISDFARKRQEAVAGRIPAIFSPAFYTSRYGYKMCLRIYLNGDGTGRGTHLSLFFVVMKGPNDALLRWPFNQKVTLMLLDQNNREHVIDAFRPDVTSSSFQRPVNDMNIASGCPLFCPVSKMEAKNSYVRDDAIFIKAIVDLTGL

Variant	effect of a mutation on the interaction
S22C	with no effect

Variants of: B7
Details: with rbtn1_human LMO1, P25800

Variant	effect of a mutation on the interaction
R8Q	with no effect
S688L	with no effect

Variants of: B8
Details: with ubql1_human UBQLN1, Q9UMX0
ubql1_human UBQLN1, Q9UMX0, sequence (Q9UMX0 whole entry): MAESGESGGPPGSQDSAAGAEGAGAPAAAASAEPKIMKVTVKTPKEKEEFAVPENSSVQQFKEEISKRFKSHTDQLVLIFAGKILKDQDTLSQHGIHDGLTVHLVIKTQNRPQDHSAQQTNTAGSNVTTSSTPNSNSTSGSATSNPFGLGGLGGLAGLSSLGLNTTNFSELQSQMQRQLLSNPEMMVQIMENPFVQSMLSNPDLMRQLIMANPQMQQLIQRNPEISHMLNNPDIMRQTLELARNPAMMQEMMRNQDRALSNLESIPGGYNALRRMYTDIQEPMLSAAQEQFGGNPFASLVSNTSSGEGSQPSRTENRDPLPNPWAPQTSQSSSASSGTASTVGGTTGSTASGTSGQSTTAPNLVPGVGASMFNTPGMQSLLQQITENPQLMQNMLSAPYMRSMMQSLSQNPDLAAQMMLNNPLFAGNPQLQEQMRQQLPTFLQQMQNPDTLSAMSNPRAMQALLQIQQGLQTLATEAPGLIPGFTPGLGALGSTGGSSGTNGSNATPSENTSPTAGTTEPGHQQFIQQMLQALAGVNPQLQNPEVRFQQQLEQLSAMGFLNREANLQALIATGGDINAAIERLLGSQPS

Variant	effect of a mutation on the interaction
V184F	with no effect

Variants of: B8
Details: with gucd1_human GUCD1, Q96NT3
gucd1_human GUCD1, Q96NT3, sequence (Q96NT3 whole entry): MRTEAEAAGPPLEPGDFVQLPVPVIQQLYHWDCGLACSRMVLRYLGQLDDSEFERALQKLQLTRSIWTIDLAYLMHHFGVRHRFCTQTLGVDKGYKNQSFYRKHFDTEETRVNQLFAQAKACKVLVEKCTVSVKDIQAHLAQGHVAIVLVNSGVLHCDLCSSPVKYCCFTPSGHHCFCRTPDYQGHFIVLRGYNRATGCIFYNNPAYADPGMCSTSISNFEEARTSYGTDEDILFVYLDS

Variant	effect of a mutation on the interaction
V184F	with no effect

Variants of: B8
Details: with trad1_human TRAFD1, O14545
trad1_human TRAFD1, O14545, sequence (O14545 whole entry): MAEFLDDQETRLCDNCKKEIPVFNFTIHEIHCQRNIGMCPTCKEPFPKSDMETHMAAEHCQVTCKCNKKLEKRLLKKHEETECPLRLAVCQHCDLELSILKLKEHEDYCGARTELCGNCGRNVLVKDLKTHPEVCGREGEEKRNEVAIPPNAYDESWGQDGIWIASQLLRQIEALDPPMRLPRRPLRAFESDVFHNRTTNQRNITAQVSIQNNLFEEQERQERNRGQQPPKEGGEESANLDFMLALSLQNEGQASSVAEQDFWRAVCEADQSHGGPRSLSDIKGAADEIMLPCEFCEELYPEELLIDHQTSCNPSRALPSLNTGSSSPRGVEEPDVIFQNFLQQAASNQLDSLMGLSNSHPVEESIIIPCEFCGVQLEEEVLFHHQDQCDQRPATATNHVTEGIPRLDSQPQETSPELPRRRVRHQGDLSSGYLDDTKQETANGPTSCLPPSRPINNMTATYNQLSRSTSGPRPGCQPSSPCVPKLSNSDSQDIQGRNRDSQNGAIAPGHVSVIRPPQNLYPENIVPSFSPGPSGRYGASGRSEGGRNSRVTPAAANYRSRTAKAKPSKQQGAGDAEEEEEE

Variant	effect of a mutation on the interaction
V184F	with no effect
